Assay results published in PMC12093852 (Cell Communication and Signaling : CCS, 2025).

B1: G protein-coupled receptor 15 ligand (GPR15LG) (ligand, UniProt Q6UWK7 25-81, looked up)
chain: KRRPAKAWSGRRTRLCCHRVPSPNSTNLKGHHVRLCKPCKLEPEPRLWVVPGALPQV
notes: also called C10orf99; AP-57

Experiments:
[1] = target: C-X-C chemokine receptor type 4 (CXCR4), endogenous on SupT1 cells (human (endogenous in SupT1)) (UniProt P61073)
ACKR3-LgBiT = ACKR3-LgBiT (UniProt P25106)
CXCR4-LgBiT = CXCR4-LgBiT (UniProt P61073)
[2] = target: CXCR4 N-terminally fused to Nanoluciferase (UniProt P61073); test: FRET or BRET; NanoBRET ligand binding competition; HEK293T cells stably expressing the receptor N-terminally fused to Nanoluciferase; increasing concentrations of ligands with 10 nM CXCL12-AZ568; 2 h on ice
[3] = target: T1, CXCR4 N-terminally fused to Nanoluciferase (UniProt P61073 1-352); test: as above; conditions: one partner purified
T1 construct: also called CXCR4 fused to a Nanoluciferase

[4] = target: T2, C-X-C chemokine receptor type 4 (CXCR4), endogenous on SupT1 cells (human (endogenous in SupT1), UniProt P61073 1-352); test: flow cytometry on cells; competition with APC-conjugated anti-human CXCR4 antibody clone 12G5 (ECL-2) on 5 x 10^4 SupT1 cells; compounds serially diluted in cold PBS; 90 min at 4 °C; MFI normalized to full stain (100%) and unstained (0%); conditions: one partner purified
[5] = target: T2, C-X-C chemokine receptor type 4 …; test: flow cytometry on cells; competition with PE-conjugated anti-human CXCR4 antibody clone 1D9 (N-terminus) on 5 x 10^4 SupT1 cells; compounds serially diluted in cold PBS; 90 min at 4 °C; MFI normalized to full stain (100%) and unstained (0%); conditions: one partner purified

| Molecule | inhibition of CXCR4-tropic HIV-1 infection of TZM-bl reporter cells [1] [nM] | β-arrestin-2 recruitment to ACKR3 (NanoBiT, HEK293T) (ACKR3-LgBiT) [nM] | β-arrestin-2 recruitment to CXCR4 (NanoBiT, HEK293T) (CXCR4-LgBiT) [nM] | IC50 [2] [nM] | IC50 [3] [nM] | IC50 [4] [nM] | IC50 [5] [nM] |
| --- | --- | --- | --- | --- | --- | --- | --- |
| C-X-C motif chemokine ligand 12 (CXCL12), unlabelled (from UniProt P48061 22-93) | 47.9 | 30 | 30 | 36.7 |  |  |  |
| B1 |  |  |  |  | 829 ± 139 | 1300 ± 100 | ~12100 |
